According to patent US20250250357A1 (NANJING ZAIMING PHARMACEUTICAL, published 2025):
Substitutions are numbered along the chain they refer to.

T1: human MSLN-R1-his protein (human, UniProt Q13421 296-390)
T1 construct: Self-made in HEK293E cells; also called human MSLN-R1 protein; hMSLN-R1-his; not shown: His tag
T1 chain: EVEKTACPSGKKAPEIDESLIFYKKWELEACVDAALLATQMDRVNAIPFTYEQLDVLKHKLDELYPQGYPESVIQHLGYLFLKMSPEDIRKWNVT

B1: S009-F3-63.5 (antibody, human IgG1, kappa, V domains shown)
VH: QVQLQQSGAELVRPGASVTLSCKASGYTFTDYEMHWVKQTPVHGLEWIGGIDPETGDTAYNQQFKGKAILTADRSSSTAYMELRSLTSEDSAVYYCTNYASSREDYWGQGTTLTVSS
VL: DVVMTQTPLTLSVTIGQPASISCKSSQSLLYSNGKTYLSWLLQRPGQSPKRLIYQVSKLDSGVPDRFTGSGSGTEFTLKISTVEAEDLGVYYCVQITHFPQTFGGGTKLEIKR
notes: Human-murine chimeric antibody: murine VH/VL on human IgG1 heavy and kappa light constant regions
B2: S009-F3.74.20 (antibody, human IgG1, kappa, V domains shown)
VH: RVQLQQSGAELVRPGASVTLSCKASGYTFTDSEMHWVKQTPVHGLEWIGAIDPEIDGTAYNQNFRDKAILTADKSSSTAYMELRSLTSEDSAVYYCTTYFGSGYGYFDVWGTGTTVTVSS
VL: DVVMTQTPLSLSVSLGDQASISCRSSQSLVYSNGNTYLHWFLQKPGQSPKLLIYKVSNRFSGVPDRFSGSGSGTDFTLKINRVEAEDLGVYFCSQSTHIPFTFGAGTKLELKR
notes: as for B1
B3: S009-F3.80.22 (antibody, human IgG1, kappa, V domains shown)
VH: QVQLQQSGAELVRPGASVTLSCKASGYTFTDYEIHWVKQTPVHGLEWIGAFDPEIGGSAYNQKFKDRATLTADKSSSTAYMELHSLTAEDSAVYYCTDYYGSSSGYFDVWGTGTTVTVSS
VL: B2 VL with S12P, V30E, Y31H, S32N, Q43H, N81S, I99V, A105S, L111I
notes: as for B1
B4: S009-F3.45.21 (antibody, human IgG1, kappa, V domains shown)
VH: DVQLQESGPGLVKPSQSLSLTCSVTGDSITSGYYWNWIRQFPGNKLEWMGFIRFDGTNNYNPSLKNRISITRDTSKNQFFLKLNSVTTEDTATYYCAREGSYAPAWFAYWGQGTLVTVSA
VL: QIVLTQSPAIMSASPGEKVTMTCSASSSLSYMYWYQQKPGSSPRLLIYDTSNLASGVPVRFSGSGSGTSYSLTISRMEAEDAATYYCQQWSSYPPTFGGGTKLEIKR
notes: as for B1

Molecular target: T2, human MSLN-FL-his protein (human, UniProt Q13421 296-580)
T2 construct: Self-made in HEK293E cells; also called human MSLN full-length protein; hMSLN-FL-his; not shown: His tag
Test: ELISA on coated antigen, antibody 1 nM

| OD450 | Binder |
| --- | --- |
| 1.99 OD450 | B1 |
| 1.88 OD450 | B2 |
| 1.97 OD450 | B3 |
| 1.75 OD450 | B4 |

Molecular target: T1, human MSLN-R1-his protein
Test: ELISA on coated antigen, antibody 1 nM
Experimental: (§1) The plate was sealed with a plastic film and incubated at 4° C. overnight. The next day, the plate was washed twice with PBST, and a blocking buffer [PBS+2% (w/w) BSA] was added for blocking at room temperature for 2 h. The blocking buffer was discarded, and a chimeric antibody or negative control antibody serially diluted from 100 nM was added at 50 μL/well. After incubation at 37° C. for 2 h, the plate was washed 3 times with PBST. […] After incubation at 37° C. for 2 h, the plate was washed 5 times with PBST. A TMB substrate was added at 50 μL/well for incubation at room temperature for 5-10 min, and then a stop solution (1.0 N HCl) was added at 50 μL/well.

| OD450 | Binder |
| --- | --- |
| 0.06 OD450 | B1 |
| 0.07 OD450 | B2 |
| 0.05 OD450 | B3 |
| 0.06 OD450 | B4 |

Molecular target: T2, human MSLN-FL-his protein
Test: ELISA on coated antigen, antibody 10 nM
Experimental: as §1

| OD450 | Binder |
| --- | --- |
| 2.15 OD450 | B1 |
| 1.97 OD450 | B2 |
| 1.99 OD450 | B3 |
| 1.8 OD450 | B4 |

Molecular target: T1, human MSLN-R1-his protein
Test: ELISA on coated antigen, antibody 10 nM
Experimental: as §1

| OD450 | Binder |
| --- | --- |
| 0.07 OD450 | B1 |
| 0.08 OD450 | B2 |
| 0.06 OD450 | B3 |
| 0.11 OD450 | B4 |

Molecular target: T2, human MSLN-FL-his protein
Test: ELISA on coated antigen, antibody 0.1 nM
Experimental: as §1

| OD450 | Binder |
| --- | --- |
| 1.72 OD450 | B1 |
| 1.59 OD450 | B2 |
| 1.71 OD450 | B3 |
| 1.63 OD450 | B4 |

Molecular target: T2, human MSLN-FL-his protein
Test: ELISA on coated antigen, antibody 100 nM
Experimental: as §1

| OD450 | Binder |
| --- | --- |
| 2.76 OD450 | B1 |
| 2.17 OD450 | B2 |
| 2.31 OD450 | B3 |
| 2.23 OD450 | B4 |

Molecular target: T1, human MSLN-R1-his protein
Test: ELISA on coated antigen, antibody 0.1 nM
Experimental: as §1

| OD450 | Binder |
| --- | --- |
| 0.05 OD450 | B1 |
| 0.06 OD450 | B2 |
| 0.06 OD450 | B3 |
| 0.05 OD450 | B4 |

Molecular target: T1, human MSLN-R1-his protein
Test: ELISA on coated antigen, antibody 100 nM
Experimental: as §1

| OD450 | Binder |
| --- | --- |
| 0.09 OD450 | B1 |
| 0.11 OD450 | B2 |
| 0.07 OD450 | B3 |
| 0.65 OD450 | B4 |

Molecular target: T2, human MSLN-FL-his protein
Test: ELISA on coated antigen, antibody 0.01 nM
Experimental: as §1

| OD450 | Binder |
| --- | --- |
| 0.62 OD450 | B1 |
| 0.42 OD450 | B2 |
| 0.69 OD450 | B3 |
| 0.69 OD450 | B4 |

Molecular target: T1, human MSLN-R1-his protein
Test: ELISA on coated antigen, antibody 0.01 nM
Experimental: as §1

| OD450 | Binder |
| --- | --- |
| 0.05 OD450 | B1 |
| 0.06 OD450 | B2 |
| 0.06 OD450 | B3 |
| 0.06 OD450 | B4 |

Molecular target: T2, human MSLN-FL-his protein
Test: ELISA on coated antigen, antibody 0.001 nM
Experimental: as §1

| OD450 | Binder |
| --- | --- |
| 0.14 OD450 | B1 |
| 0.11 OD450 | B2 |
| 0.14 OD450 | B3 |
| 0.35 OD450 | B4 |

Molecular target: T1, human MSLN-R1-his protein
Test: ELISA on coated antigen, antibody 0.001 nM
Experimental: as §1

| OD450 | Binder |
| --- | --- |
| 0.05 OD450 | B1 |
| 0.06 OD450 | B2 |
| 0.06 OD450 | B3 |
| 0.06 OD450 | B4 |

Molecular target: T2, human MSLN-FL-his protein
Test: ELISA on coated antigen, antibody 0.0001 nM
Experimental: as §1

| OD450 | Binder |
| --- | --- |
| 0.06 OD450 | B1 |
| 0.07 OD450 | B2 |
| 0.07 OD450 | B3 |
| 0.1 OD450 | B4 |

Molecular target: T1, human MSLN-R1-his protein
Test: ELISA on coated antigen, antibody 0.0001 nM
Experimental: as §1

| OD450 | Binder |
| --- | --- |
| 0.05 OD450 | B1 |
| 0.06 OD450 | B2 |
| 0.06 OD450 | B3 |
| 0.06 OD450 | B4 |

Molecular target: T2, human MSLN-FL-his protein
Test: ELISA on coated antigen, no antibody (column none)
Experimental: as §1

| OD450 | Binder |
| --- | --- |
| 0.06 OD450 | B1 |
| 0.08 OD450 | B2 |
| 0.07 OD450 | B3 |
| 0.08 OD450 | B4 |

Molecular target: T1, human MSLN-R1-his protein
Test: ELISA on coated antigen, no antibody (column none)
Experimental: as §1

| OD450 | Binder |
| --- | --- |
| 0.06 OD450 | B1 |
| 0.07 OD450 | B2 |
| 0.06 OD450 | B3 |
| 0.07 OD450 | B4 |
